Source: patent US20210230295A1 (HANGZHOU SUMGEN BIOTECH, published 2021)

Experiments:
[1] = target: T1, AXL on the surface of human tumor cells (human, UniProt P30530 26-894); assay: cell-based or functional assay
T1 sequence: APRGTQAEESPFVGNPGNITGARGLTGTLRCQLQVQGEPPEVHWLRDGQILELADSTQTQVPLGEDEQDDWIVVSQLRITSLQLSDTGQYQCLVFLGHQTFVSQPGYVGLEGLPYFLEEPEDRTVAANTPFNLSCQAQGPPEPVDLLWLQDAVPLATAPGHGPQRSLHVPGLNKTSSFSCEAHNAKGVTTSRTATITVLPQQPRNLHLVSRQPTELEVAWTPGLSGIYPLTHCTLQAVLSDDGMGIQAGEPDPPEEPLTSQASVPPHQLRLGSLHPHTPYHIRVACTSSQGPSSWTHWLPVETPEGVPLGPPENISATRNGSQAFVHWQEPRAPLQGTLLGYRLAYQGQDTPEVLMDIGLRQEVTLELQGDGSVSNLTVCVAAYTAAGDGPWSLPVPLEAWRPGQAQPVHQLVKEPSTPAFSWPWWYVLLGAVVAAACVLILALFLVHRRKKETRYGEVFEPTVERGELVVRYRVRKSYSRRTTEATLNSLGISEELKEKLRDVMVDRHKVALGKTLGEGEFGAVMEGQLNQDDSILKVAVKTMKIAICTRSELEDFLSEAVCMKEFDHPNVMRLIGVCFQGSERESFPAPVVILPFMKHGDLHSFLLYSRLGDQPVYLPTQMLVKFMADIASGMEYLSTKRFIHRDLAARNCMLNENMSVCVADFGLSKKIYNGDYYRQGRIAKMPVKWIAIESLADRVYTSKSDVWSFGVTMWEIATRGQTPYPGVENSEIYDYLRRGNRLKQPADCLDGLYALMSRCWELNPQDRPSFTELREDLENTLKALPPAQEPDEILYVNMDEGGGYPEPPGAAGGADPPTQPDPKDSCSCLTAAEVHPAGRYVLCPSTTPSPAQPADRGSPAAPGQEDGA

[2] = target: T2, AXL (Beijing Yiqiao Shenzhou Bio Technology Co., Ltd., 6xHis label, with a molecular weight of 65 Kda) (UniProt P30530 33-449); assay: SPR (BIACORE), C6G12 captured by anti-human IgG-Fc antibody, AXL-His as mobile phase
T2 construct: Bought protein used as the mobile phase in BIACORE; not shown: 6xHis label
T2 sequence (looked up): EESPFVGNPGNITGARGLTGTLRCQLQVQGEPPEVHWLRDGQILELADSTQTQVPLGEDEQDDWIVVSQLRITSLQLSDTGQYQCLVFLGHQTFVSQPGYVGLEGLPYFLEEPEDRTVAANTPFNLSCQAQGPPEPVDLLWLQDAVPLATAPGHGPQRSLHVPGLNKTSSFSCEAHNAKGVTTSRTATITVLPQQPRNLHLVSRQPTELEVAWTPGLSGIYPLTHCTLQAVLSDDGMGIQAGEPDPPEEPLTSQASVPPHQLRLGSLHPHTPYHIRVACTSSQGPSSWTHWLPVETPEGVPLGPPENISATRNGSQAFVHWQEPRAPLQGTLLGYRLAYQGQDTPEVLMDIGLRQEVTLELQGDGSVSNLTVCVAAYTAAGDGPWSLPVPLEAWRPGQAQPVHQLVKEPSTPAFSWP
Protocol: The antibody affinity was analyzed by BIACORE biomacromolecule interaction analyzer (GE Company). The anti-human IgG-Fc antibody (purchased from Abcam) was coupled to the chip, and used to capture the C6G12 antibody with an antibody concentration set as 0.5 μg/mL and an injection time of 60 seconds. AXL (Beijing Yiqiao Shenzhou Bio Technology Co., Ltd., 6×His label, with a molecular weight of 65 Kda) was taken as the mobile phase, with 6 concentration gradients (1, 0.4, 0.16, 0.064, 0.0256, 0.01024 μg/mL), a binding time of 180 seconds, and a dissociation time of 1200 seconds.

BCMA (ACRO Biosystems) = target: T3, BCMA (ACRO Biosystems) (UniProt Q02223 1-54); assay: ELISA, protein coated at 1 ug/ml, OD 450 nm
T3 sequence (looked up): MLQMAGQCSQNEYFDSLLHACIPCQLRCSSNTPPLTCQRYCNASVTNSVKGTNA
Protocol: (§1) Milk (Beijing Bomed Biotechnology Co., Ltd.), BSA (BOVOGEN), CD19 (Beijing Yiqiao Shenzhou Biotechnology Co., Ltd.), TROP2 (Beijing Yiqiao Shenzhou Biotechnology Co., Ltd.), BCMA (ACRO Biosystems), CD47 (Beijing Magpel Biotechnology Co., Ltd.), CD38 (Beijing Yiqiao Shenzhou Biotechnology Co., Ltd.), Gas6 (R&D) and each protein and AXL (ACRO Biosystems) were coated with ELISA plates at 1 μg/ml at 4° C. overnight, respectively. After washing with PBST, 10% fetal bovine serum was added and blocked at 37° C. for 1 hour. The C6G12 antibody prepared in Example 3 was added and reacted at 37° C. for 1 hour. After washing with PBST, horseradish peroxidase labeled goat anti-human IgG secondary antibody (GOAT Anti human (HRP), Thermo Fisher Scientific, #31412) was added and reacted at room temperature for 30 minutes. The plates were repeatedly washed with PBST for 5 times, and dried the residual droplets as possible on absorbent paper. […] (eBioscience, #85-00-420) was added and stood at room temperature (20±5 ) in the dark for 1.5 minutes. […] stop solution was added to each well to stop the substrate reaction. The OD value was read with a microplate reader at 450 nm. The binding abilities of antibodies and proteins were analyzed.

BSA (BOVOGEN) = target: T4, BSA (BOVOGEN) (UniProt P02769 25-607); assay: ELISA, protein coated at 1 ug/ml, OD 450 nm
T4 construct: Specificity control
T4 sequence (P02769 25-607 limits assumed): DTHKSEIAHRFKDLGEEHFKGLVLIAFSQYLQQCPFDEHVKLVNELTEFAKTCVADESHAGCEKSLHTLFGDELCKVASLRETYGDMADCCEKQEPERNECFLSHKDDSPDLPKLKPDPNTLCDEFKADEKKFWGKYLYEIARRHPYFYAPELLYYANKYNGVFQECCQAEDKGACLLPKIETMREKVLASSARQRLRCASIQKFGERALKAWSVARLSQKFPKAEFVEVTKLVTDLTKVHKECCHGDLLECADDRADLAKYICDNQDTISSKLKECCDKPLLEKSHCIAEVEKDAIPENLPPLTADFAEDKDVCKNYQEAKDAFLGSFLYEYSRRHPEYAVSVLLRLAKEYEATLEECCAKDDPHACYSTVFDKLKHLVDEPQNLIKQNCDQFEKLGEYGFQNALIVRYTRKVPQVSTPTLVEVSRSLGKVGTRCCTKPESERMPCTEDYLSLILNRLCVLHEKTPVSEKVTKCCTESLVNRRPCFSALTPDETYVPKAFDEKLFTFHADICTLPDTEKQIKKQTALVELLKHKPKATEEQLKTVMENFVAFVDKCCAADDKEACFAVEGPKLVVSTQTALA
Protocol: as §1

[3] = target: CD47 (Beijing Magpel Biotechnology Co., Ltd.) (UniProt Q08722 19-139, limits assumed); assay: ELISA, protein coated at 1 ug/ml, OD 450 nm
Sequence of CD47 (Beijing Magpel Biotechnology Co., Ltd.) (Q08722 19-139 limits assumed): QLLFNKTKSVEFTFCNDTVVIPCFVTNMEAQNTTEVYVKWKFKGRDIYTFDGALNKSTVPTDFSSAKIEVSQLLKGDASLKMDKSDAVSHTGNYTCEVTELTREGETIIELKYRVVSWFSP
Protocol: as §1

[4] = target: T5, CD38 (Beijing Yiqiao Shenzhou Biotechnology Co., Ltd.) (UniProt P28907 43-300); assay: ELISA, protein coated at 1 ug/ml, OD 450 nm
T5 sequence (looked up): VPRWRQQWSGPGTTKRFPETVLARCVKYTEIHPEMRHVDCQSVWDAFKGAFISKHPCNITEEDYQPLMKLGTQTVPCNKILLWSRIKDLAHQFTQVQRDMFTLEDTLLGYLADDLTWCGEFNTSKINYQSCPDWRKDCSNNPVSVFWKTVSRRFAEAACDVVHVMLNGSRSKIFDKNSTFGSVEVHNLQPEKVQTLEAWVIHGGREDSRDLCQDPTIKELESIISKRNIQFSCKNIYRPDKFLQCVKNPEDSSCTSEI
Protocol: as §1

[5] = target: T6, CD19 (Beijing Yiqiao Shenzhou Biotechnology Co., Ltd.) (UniProt P15391 20-291); assay: ELISA, protein coated at 1 ug/ml, OD 450 nm
T6 sequence (looked up): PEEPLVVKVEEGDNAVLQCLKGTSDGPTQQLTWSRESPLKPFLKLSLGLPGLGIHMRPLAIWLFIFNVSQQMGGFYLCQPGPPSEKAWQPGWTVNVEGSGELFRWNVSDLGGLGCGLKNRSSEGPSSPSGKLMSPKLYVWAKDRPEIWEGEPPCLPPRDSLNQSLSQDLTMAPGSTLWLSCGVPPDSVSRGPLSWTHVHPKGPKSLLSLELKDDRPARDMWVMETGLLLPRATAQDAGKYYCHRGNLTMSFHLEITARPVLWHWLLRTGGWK
Protocol: as §1

[6] = target: T7, TROP2 (Beijing Yiqiao Shenzhou Biotechnology Co., Ltd.) (UniProt P09758 27-274); assay: ELISA, protein coated at 1 ug/ml, OD 450 nm
T7 sequence (looked up): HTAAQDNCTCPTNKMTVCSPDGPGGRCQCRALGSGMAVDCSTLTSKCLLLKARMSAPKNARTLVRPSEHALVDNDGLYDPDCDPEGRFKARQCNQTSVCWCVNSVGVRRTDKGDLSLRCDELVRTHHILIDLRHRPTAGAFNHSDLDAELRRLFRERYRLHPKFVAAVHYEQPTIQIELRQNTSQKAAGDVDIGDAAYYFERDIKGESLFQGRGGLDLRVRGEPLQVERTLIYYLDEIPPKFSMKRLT
Protocol: as §1

Gas6 (R&D) = target: T8, Gas6 (R&D) (UniProt Q14393 49-678, limits assumed); assay: ELISA, protein coated at 1 ug/ml, OD 450 nm
T8 sequence (looked up): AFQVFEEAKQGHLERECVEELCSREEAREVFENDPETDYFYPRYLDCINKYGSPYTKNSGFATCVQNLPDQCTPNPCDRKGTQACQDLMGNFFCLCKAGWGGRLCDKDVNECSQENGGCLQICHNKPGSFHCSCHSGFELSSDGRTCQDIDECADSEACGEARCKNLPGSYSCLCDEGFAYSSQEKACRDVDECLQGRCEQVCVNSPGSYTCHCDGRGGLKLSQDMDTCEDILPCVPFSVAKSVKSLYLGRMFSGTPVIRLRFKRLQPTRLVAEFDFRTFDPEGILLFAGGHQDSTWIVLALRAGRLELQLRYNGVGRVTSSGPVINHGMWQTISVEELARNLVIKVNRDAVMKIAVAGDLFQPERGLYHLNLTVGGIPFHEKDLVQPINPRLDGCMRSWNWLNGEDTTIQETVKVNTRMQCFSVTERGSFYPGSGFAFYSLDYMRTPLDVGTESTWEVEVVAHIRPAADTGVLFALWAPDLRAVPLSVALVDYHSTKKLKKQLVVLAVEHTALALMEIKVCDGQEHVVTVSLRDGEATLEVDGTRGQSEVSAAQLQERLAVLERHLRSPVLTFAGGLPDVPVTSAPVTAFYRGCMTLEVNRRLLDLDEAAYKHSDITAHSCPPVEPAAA
Protocol: as §1

[7] = target: T9, AXL-Fc (fusion protein of human AXL protein extracellular domain-human IgG1 Fc) (human); assay: ELISA, AXL-Fc coated at 1 ug/ml, anti-human Fab-HRP detection
T9 construct: Expressed in CHO-K1 cells
Protocol: The AXL-Fc prepared in Example 1 was coated on the ELISA plate at 1 μg/ml at 4° C. overnight. After washing with PBST, 10% fetal bovine serum was added and blocked at 37° C. for 1 hour. Different concentrations of the C6G12 antibody prepared in Example 3 were added and reacted at 37° C. for 1 hour. After washing with PBST, horseradish peroxidase-labeled goat anti-human Fab secondary antibody (Goat Anti-human IgG(Fab′)2 (HRP), Abcam) was added and reacted at 37° C. for 30 minutes. The plate was repeatedly washed with PBST for 5 times, and dried to remove residual droplets as possible by absorbent paper. 100 μl of TMB (eBioscience) was added to each well, and stood at room temperature (20±5° C.) in the dark for 1.5 minutes. 100 μl of 2N H₂SO₄ stop solution was added to each well to stop the substrate reaction. The OD value was read with a microplate reader at 450 nm. The binding ability of the C6G12 antibody to AXL-Fc was analyzed.

[8] = target: T9, AXL-Fc (fusion protein of human AXL …); assay: ELISA, AXL-Fc coated at 1 ug/ml, anti-mouse IgG-HRP detection
Protocol: The AXL-Fc prepared in Example 1 was coated on the ELISA plate at 1 μg/ml at 4° C. overnight. After washing with PBST, 10% fetal bovine serum was added and blocked at 37° C. for 1 hour. Different concentrations of the 6G12 antibodies were added and reacted at 37° C. for 1 hour. After washing with PBST, horseradish peroxidase-labeled goat anti-mouse secondary antibody (Goat Anti-mouse IgGHRP, Abcam) was added and reacted at 37° C. for 30 minutes. The plate was repeatedly washed with PBST for 5 times, and dried to remove residual droplets as possible by absorbent paper. 100 μl of TMB (eBioscience) was added into each well, and stood at room temperature (20±5 ) in the dark for 1.5 minutes. 100 μl of 2N H₂SO₄ stop solution was added to each well to stop the substrate reaction. The OD value was read with a microplate reader at 450 nm. The binding ability of the antibody to AXL-Fc was analyzed.

| Binder | internalization efficiency EC50 on human breast cancer MDA-MB-231 cells (flow cytometry, surface MFI at 4 C against 37 C) [1] [ng/mL] | internalization efficiency EC50 on human non-small cell lung cancer A549 cells (flow cytometry, surface MFI at 4 C against 37 C) [1] [ng/mL] | internalization efficiency EC50 on human pancreatic cancer MIA PaCa-2 cells (flow cytometry, surface MFI at 4 C against 37 C) [1] [ng/mL] | internalization efficiency EC50 on renal clear cell adenocarcinoma 786-O cells (flow cytometry, surface MFI at 4 C against 37 C) [1] [ng/mL] | Kd [2] [nM] | koff [2] [s⁻¹] | kon [2] [M⁻¹ s⁻¹] | binding result (BCMA (ACRO Biosystems)) | binding result (BSA (BOVOGEN)) | binding result [3] | binding result [4] | binding result [5] | binding result [6] | binding result (Gas6 (R&D)) | EC50 [7] [ng/mL] | EC50 [8] [ng/mL] |
| --- | --- | --- | --- | --- | --- | --- | --- | --- | --- | --- | --- | --- | --- | --- | --- | --- |
| C6G12 antibody (Chimeric 6G12) (antibody, human IgG1, kappa, V domains shown, 6G12 variable regions with a human IgG1 constant region, expressed in CHO-S cells and purified by Protein A; also called chimeric antibody) VH: QVQLKQSGPGLVKPSQSLSLTCSVTGFSISSGYYWNWIRQFPGNKLEWMGYRSYDGSNNYNPSLKNRISITRDTSKNQFFLKLNSVTTEDTATYYCARGWLLHYTMDYWGQGTSVTVSS VL: ELVMTQSPFSNAVTLGTSASISCRSSRSLLHSNGFTYLYWYLQKPGQSPQLLIYQMSNLASGVPDRFSSSGSGTDFTLRISRVEAEDVGVYYCGQNLELPLTFGAGTKLELKR | 0.89 | 0.61 | 1.3 | 1.5 | 0.154 | 0.000402 | 2.61e+06 | no binding | no binding | no binding | no binding | no binding | no binding | no binding | 19.4 |  |
| 6G12 antibody (antibody, V domains shown, also called monoclonal antibody 6G12) VH: QVQLKQSGPGLVKPSQSLSLTCSVTGFSISSGYYWNWIRQFPGNKLEWMGYRSYDGSNNYNPSLKNRISITRDTSKNQFFLKLNSVTTEDTATYYCARGWLLHYTMDYWGQGTSVTVSS VL: ELVMTQSPFSNAVTLGTSASISCRSSRSLLHSNGFTYLYWYLQKPGQSPQLLIYQMSNLASGVPDRFSSSGSGTDFTLRISRVEAEDVGVYYCGQNLELPLTFGAGTKLELK |  |  |  |  |  |  |  |  |  |  |  |  |  |  |  | 669 |
